Experimental data taken from IntAct's records for PubMed 10531343.

B1: Synaptotagmin-9 (Mus musculus), Q9R0N9 (parent)
chain: MPGARDALCHQALQLLAELCARGALEHDSCQDFIYHLRDRARPRLRDPDISVSLLTLVVTACGLALFGVSLFVSWKLCWVPWRERGLFSGSKDNNQEPLNYTDTETNEQENSEDFLDPPTPCPDSSMKISHTSPDIPLSTQPGGQENCAHAVRVQRQVTEPTPSARHNSIRRQLNLSNPDFNIQQLQRQEQLTGIGRIKPELYKQRSLDNDDGRRSNSKACGKLNFILKYDCDLEQLIVKIHKAVNLPAKDFSGTSDPYVKIYLLPDRKTKHQTKVHRKTLNPVFDEVFLFPVHYNDLEARKLHFSVYDFDRFSRHDLIGQVVVDHFFDLADFPRECILWKDIEYVTNDNVDLGELMFSLCYLPTAGRLTITIIKARNLKAMDITGASDPYVKVSLMCDGRRLKKRKTSTKRNTLNPVYNEAIVFDVPPESIDQIHLSIAVMDYDRVGHNEVIGVCQVGNEAERLGRDHWSEMLSYPRKPIAHWHSLMEKR
partner: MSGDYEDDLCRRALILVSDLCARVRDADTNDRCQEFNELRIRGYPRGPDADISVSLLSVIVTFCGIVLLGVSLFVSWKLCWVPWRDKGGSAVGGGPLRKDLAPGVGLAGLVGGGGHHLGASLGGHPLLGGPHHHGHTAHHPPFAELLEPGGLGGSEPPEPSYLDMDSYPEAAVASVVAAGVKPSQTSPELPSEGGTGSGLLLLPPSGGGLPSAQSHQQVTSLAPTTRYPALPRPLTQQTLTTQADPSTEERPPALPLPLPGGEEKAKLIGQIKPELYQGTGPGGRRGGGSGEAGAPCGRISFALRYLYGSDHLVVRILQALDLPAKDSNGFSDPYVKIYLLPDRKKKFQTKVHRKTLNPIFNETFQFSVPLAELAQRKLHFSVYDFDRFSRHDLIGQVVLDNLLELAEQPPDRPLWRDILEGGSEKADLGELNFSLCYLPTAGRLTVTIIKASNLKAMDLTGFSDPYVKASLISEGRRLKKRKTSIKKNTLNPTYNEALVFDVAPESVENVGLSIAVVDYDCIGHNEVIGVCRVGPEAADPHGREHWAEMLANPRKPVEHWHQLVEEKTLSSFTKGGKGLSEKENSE
B2: Synaptotagmin-3 (Mus musculus), O35681 (parent)
chain: B1 partner
partner: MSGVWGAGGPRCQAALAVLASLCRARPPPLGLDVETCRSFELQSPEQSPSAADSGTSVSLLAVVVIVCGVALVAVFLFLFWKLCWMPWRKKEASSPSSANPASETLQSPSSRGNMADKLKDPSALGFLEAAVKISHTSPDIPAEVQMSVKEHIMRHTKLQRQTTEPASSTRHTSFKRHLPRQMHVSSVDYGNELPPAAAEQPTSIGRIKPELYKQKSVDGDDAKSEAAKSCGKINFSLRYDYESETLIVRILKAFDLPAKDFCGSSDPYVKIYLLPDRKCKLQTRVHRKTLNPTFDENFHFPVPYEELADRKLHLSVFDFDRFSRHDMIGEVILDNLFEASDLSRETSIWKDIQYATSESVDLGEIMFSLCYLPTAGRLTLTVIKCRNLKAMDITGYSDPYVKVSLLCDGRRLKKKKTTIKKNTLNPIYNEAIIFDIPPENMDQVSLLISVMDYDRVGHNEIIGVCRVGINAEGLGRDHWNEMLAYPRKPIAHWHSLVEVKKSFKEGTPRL
B3: Synaptotagmin-9 (Mus musculus), Q9R0N9 (parent)
chain: B1 chain
partner: B2 partner
B4: Synaptotagmin-6 (Mus musculus), Q9R0N8 (parent)
chain: B2 partner
partner: B1 partner
B5: Synaptotagmin-9 (Mus musculus), Q9R0N9 (parent)
chain: B1 chain
partner: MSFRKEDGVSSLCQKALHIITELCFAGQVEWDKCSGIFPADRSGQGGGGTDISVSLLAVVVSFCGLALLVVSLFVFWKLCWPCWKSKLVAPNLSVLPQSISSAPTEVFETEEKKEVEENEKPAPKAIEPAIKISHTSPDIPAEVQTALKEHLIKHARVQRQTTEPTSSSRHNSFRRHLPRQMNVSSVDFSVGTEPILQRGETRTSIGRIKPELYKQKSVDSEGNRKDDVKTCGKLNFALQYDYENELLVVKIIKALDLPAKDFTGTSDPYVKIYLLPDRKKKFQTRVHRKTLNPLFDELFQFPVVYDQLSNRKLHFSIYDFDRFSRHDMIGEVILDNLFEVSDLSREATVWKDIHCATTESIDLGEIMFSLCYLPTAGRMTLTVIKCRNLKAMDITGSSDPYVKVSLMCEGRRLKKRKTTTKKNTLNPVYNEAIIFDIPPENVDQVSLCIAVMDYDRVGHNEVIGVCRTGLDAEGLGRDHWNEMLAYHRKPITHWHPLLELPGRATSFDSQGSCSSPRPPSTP
B6: Synaptotagmin-10 (Mus musculus), Q9R0N4 (parent)
chain: B5 partner
partner: B2 partner

Variants of: B1
Conditions: with syt3_mouse Syt3, O35681

effect of a mutation on the interaction	Variant
decreasing interaction	MPGARDALAHQALQLLAELCARGALEHDSCQDFIYHLRDRARPRLRDPDISVSLLTLVVTACGLALFGVSLFVSWKLCWVPWRERGLFSGSKDNNQEPLNYTDTETNEQENSEDFLDPPTPCPDSSMKISHTSPDIPLSTQPGGQENCAHAVRVQRQVTEPTPSARHNSIRRQLNLSNPDFNIQQLQRQEQLTGIGRIKPELYKQRSLDNDDGRRSNSKACGKLNFILKYDCDLEQLIVKIHKAVNLPAKDFSGTSDPYVKIYLLPDRKTKHQTKVHRKTLNPVFDEVFLFPVHYNDLEARKLHFSVYDFDRFSRHDLIGQVVVDHFFDLADFPRECILWKDIEYVTNDNVDLGELMFSLCYLPTAGRLTITIIKARNLKAMDITGASDPYVKVSLMCDGRRLKKRKTSTKRNTLNPVYNEAIVFDVPPESIDQIHLSIAVMDYDRVGHNEVIGVCQVGNEAERLGRDHWSEMLSYPRKPIAHWHSLMEKR [C9A]

Variants of: B2
Conditions: with syt6_mouse Syt6, Q9R0N8

effect of a mutation on the interaction	Variant
decreasing interaction	MSGDYEDDLARRALILVSDLCARVRDADTNDRCQEFNELRIRGYPRGPDADISVSLLSVIVTFCGIVLLGVSLFVSWKLCWVPWRDKGGSAVGGGPLRKDLAPGVGLAGLVGGGGHHLGASLGGHPLLGGPHHHGHTAHHPPFAELLEPGGLGGSEPPEPSYLDMDSYPEAAVASVVAAGVKPSQTSPELPSEGGTGSGLLLLPPSGGGLPSAQSHQQVTSLAPTTRYPALPRPLTQQTLTTQADPSTEERPPALPLPLPGGEEKAKLIGQIKPELYQGTGPGGRRGGGSGEAGAPCGRISFALRYLYGSDHLVVRILQALDLPAKDSNGFSDPYVKIYLLPDRKKKFQTKVHRKTLNPIFNETFQFSVPLAELAQRKLHFSVYDFDRFSRHDLIGQVVLDNLLELAEQPPDRPLWRDILEGGSEKADLGELNFSLCYLPTAGRLTVTIIKASNLKAMDLTGFSDPYVKASLISEGRRLKKRKTSIKKNTLNPTYNEALVFDVAPESVENVGLSIAVVDYDCIGHNEVIGVCRVGPEAADPHGREHWAEMLANPRKPVEHWHQLVEEKTLSSFTKGGKGLSEKENSE [C10A]

Variants of: B3
Conditions: with syt6_mouse Syt6, Q9R0N8

effect of a mutation on the interaction	Variant
decreasing interaction	MPGARDALAHQALQLLAELCARGALEHDSCQDFIYHLRDRARPRLRDPDISVSLLTLVVTACGLALFGVSLFVSWKLCWVPWRERGLFSGSKDNNQEPLNYTDTETNEQENSEDFLDPPTPCPDSSMKISHTSPDIPLSTQPGGQENCAHAVRVQRQVTEPTPSARHNSIRRQLNLSNPDFNIQQLQRQEQLTGIGRIKPELYKQRSLDNDDGRRSNSKACGKLNFILKYDCDLEQLIVKIHKAVNLPAKDFSGTSDPYVKIYLLPDRKTKHQTKVHRKTLNPVFDEVFLFPVHYNDLEARKLHFSVYDFDRFSRHDLIGQVVVDHFFDLADFPRECILWKDIEYVTNDNVDLGELMFSLCYLPTAGRLTITIIKARNLKAMDITGASDPYVKVSLMCDGRRLKKRKTSTKRNTLNPVYNEAIVFDVPPESIDQIHLSIAVMDYDRVGHNEVIGVCQVGNEAERLGRDHWSEMLSYPRKPIAHWHSLMEKR [C9A]

Variants of: B4
Conditions: with syt3_mouse Syt3, O35681

effect of a mutation on the interaction	Variant
decreasing interaction	MSGVWGAGGPRAQAALAVLASLCRARPPPLGLDVETCRSFELQSPEQSPSAADSGTSVSLLAVVVIVCGVALVAVFLFLFWKLCWMPWRKKEASSPSSANPASETLQSPSSRGNMADKLKDPSALGFLEAAVKISHTSPDIPAEVQMSVKEHIMRHTKLQRQTTEPASSTRHTSFKRHLPRQMHVSSVDYGNELPPAAAEQPTSIGRIKPELYKQKSVDGDDAKSEAAKSCGKINFSLRYDYESETLIVRILKAFDLPAKDFCGSSDPYVKIYLLPDRKCKLQTRVHRKTLNPTFDENFHFPVPYEELADRKLHLSVFDFDRFSRHDMIGEVILDNLFEASDLSRETSIWKDIQYATSESVDLGEIMFSLCYLPTAGRLTLTVIKCRNLKAMDITGYSDPYVKVSLLCDGRRLKKKKTTIKKNTLNPIYNEAIIFDIPPENMDQVSLLISVMDYDRVGHNEIIGVCRVGINAEGLGRDHWNEMLAYPRKPIAHWHSLVEVKKSFKEGTPRL [C12A]

Variants of: B5
Conditions: with syt10_mouse Syt10, Q9R0N4

effect of a mutation on the interaction	Variant
decreasing interaction	MPGARDALAHQALQLLAELCARGALEHDSCQDFIYHLRDRARPRLRDPDISVSLLTLVVTACGLALFGVSLFVSWKLCWVPWRERGLFSGSKDNNQEPLNYTDTETNEQENSEDFLDPPTPCPDSSMKISHTSPDIPLSTQPGGQENCAHAVRVQRQVTEPTPSARHNSIRRQLNLSNPDFNIQQLQRQEQLTGIGRIKPELYKQRSLDNDDGRRSNSKACGKLNFILKYDCDLEQLIVKIHKAVNLPAKDFSGTSDPYVKIYLLPDRKTKHQTKVHRKTLNPVFDEVFLFPVHYNDLEARKLHFSVYDFDRFSRHDLIGQVVVDHFFDLADFPRECILWKDIEYVTNDNVDLGELMFSLCYLPTAGRLTITIIKARNLKAMDITGASDPYVKVSLMCDGRRLKKRKTSTKRNTLNPVYNEAIVFDVPPESIDQIHLSIAVMDYDRVGHNEVIGVCQVGNEAERLGRDHWSEMLSYPRKPIAHWHSLMEKR [C9A]

Variants of: B6
Conditions: with syt6_mouse Syt6, Q9R0N8

effect of a mutation on the interaction	Variant
decreasing interaction	MSFRKEDGVSSLAQKALHIITELCFAGQVEWDKCSGIFPADRSGQGGGGTDISVSLLAVVVSFCGLALLVVSLFVFWKLCWPCWKSKLVAPNLSVLPQSISSAPTEVFETEEKKEVEENEKPAPKAIEPAIKISHTSPDIPAEVQTALKEHLIKHARVQRQTTEPTSSSRHNSFRRHLPRQMNVSSVDFSVGTEPILQRGETRTSIGRIKPELYKQKSVDSEGNRKDDVKTCGKLNFALQYDYENELLVVKIIKALDLPAKDFTGTSDPYVKIYLLPDRKKKFQTRVHRKTLNPLFDELFQFPVVYDQLSNRKLHFSIYDFDRFSRHDMIGEVILDNLFEVSDLSREATVWKDIHCATTESIDLGEIMFSLCYLPTAGRMTLTVIKCRNLKAMDITGSSDPYVKVSLMCEGRRLKKRKTTTKKNTLNPVYNEAIIFDIPPENVDQVSLCIAVMDYDRVGHNEVIGVCRTGLDAEGLGRDHWNEMLAYHRKPITHWHPLLELPGRATSFDSQGSCSSPRPPSTP [C13A]
